# B1: KRT18 (parent)
# chain: RAQYDELARKNREELDKYWSQQIE
# Variants of: B1
# Assay: protein stability index of a GFP-peptide fusion (GPS, HEK-293T) (PSI 1-6); higher = more stable
# Details: c terminus: a fixed tail appended
# 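Further: lentivirally expressed fusions sorted by FACS into six bins by GFP to DsRed ratio, PSI derived from sequencing read proportions per bin multiplied by bin number.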
row,Variant,protein stability index
1,RAQYDEFARKNREELDKYWSQQIE,1.27
2,RAQYDERARKNREELDKYWSQQIE,3.89
3,RAQYDEMARKNREELDKYWSQQIE,2.38
4,RAQYDESARKNREELDKYWSQQIE,3.84
5,RAQYDEVARKNREELDKYWSQQIE,3.41
6,RAQYDECARKNREELDKYWSQQIE,3.42
7,RAQYDEAARKNREELDKYWSQQIE,3.7
8,RAQYDEHARKNREELDKYWSQQIE,3.62
9,RAQYDEQARKNREELDKYWSQQIE,3.78
10,RAQYDEDARKNREELDKYWSQQIE,3
11,RAQYDEPARKNREELDKYWSQQIE,4.08
12,RAQYDENARKNREELDKYWSQQIE,4.22
13,RAQYDEIARKNREELDKYWSQQIE,3.41
14,RAQYDEGARKNREELDKYWSQQIE,3.19
15,RAQYDEEARKNREELDKYWSQQIE,2.75
16,RAQYDEYARKNREELDKYWSQQIE,3.06
17,RAQYDEKARKNREELDKYWSQQIE,3.93
18,RAQYDETARKNREELDKYWSQQIE,3.68
19,RAQYDEWARKNREELDKYWSQQIE,2.13
20,RAQYDELARLNREELDKYWSQQIE,3.73
21,RAQYDELARSNREELDKYWSQQIE,3.23
22,RAQYDELARPNREELDKYWSQQIE,3.83
23,RAQYDELARQNREELDKYWSQQIE,3.14
24,RAQYDELARCNREELDKYWSQQIE,3.02

row,Variant,protein stability index
1,RAQYDELARVNREELDKYWSQQIE,3.15
2,RAQYDELARENREELDKYWSQQIE,3.33
3,RAQYDELARINREELDKYWSQQIE,2.79
4,RAQYDELARFNREELDKYWSQQIE,3.34
5,RAQYDELARWNREELDKYWSQQIE,2.81
6,RAQYDELARNNREELDKYWSQQIE,3.79
7,RAQYDELARHNREELDKYWSQQIE,4.16
8,RAQYDELARTNREELDKYWSQQIE,3.5
9,RAQYDELARYNREELDKYWSQQIE,4.15
10,RAQYDELARDNREELDKYWSQQIE,4.73
11,RAQYDELARRNREELDKYWSQQIE,3.03
12,RAQYDELARGNREELDKYWSQQIE,4.05
13,RAQYDELARANREELDKYWSQQIE,2.97
14,RAQYDELARMNREELDKYWSQQIE,4.04
15,RAQYDELARKTREELDKYWSQQIE,2.8
16,RAQYDELARKQREELDKYWSQQIE,3.87
17,RAQYDELARKPREELDKYWSQQIE,4.02
18,RAQYDELARKSREELDKYWSQQIE,4.15
19,RAQYDELARKHREELDKYWSQQIE,3.75
20,RAQYDELARKVREELDKYWSQQIE,2.75
21,RAQYDELARKCREELDKYWSQQIE,2.81
22,RAQYDELARKKREELDKYWSQQIE,3.96
23,RAQYDELARKEREELDKYWSQQIE,4.54
24,RAQYDELARKIREELDKYWSQQIE,2.37

row,Variant,protein stability index
1,RAQYDELARKGREELDKYWSQQIE,3.71
2,RAQYDELARKLREELDKYWSQQIE,2.66
3,RAQYDELARKYREELDKYWSQQIE,2.27
4,RAQYDELARKMREELDKYWSQQIE,2.81
5,RAQYDELARKRREELDKYWSQQIE,3.39
6,RAQYDELARKDREELDKYWSQQIE,4.23
7,RAQYDELARKAREELDKYWSQQIE,4
8,RAQYDELARKFREELDKYWSQQIE,1.94
9,RAQYDELARKWREELDKYWSQQIE,2.63
10,RAQYNELARKNREELDKYWSQQIE,3.17
11,RAQYLELARKNREELDKYWSQQIE,2.33
12,RAQYGELARKNREELDKYWSQQIE,3.09
13,RAQYEELARKNREELDKYWSQQIE,2.86
14,RAQYAELARKNREELDKYWSQQIE,2.74
15,RAQYRELARKNREELDKYWSQQIE,2.79
16,RAQYIELARKNREELDKYWSQQIE,2.98
17,RAQYHELARKNREELDKYWSQQIE,3.29
18,RAQYYELARKNREELDKYWSQQIE,3.28
19,RAQYSELARKNREELDKYWSQQIE,2.79
20,RAQYPELARKNREELDKYWSQQIE,3.73
21,RAQYKELARKNREELDKYWSQQIE,2.84
22,RAQYFELARKNREELDKYWSQQIE,2.83
23,RAQYQELARKNREELDKYWSQQIE,3.38
24,RAQYMELARKNREELDKYWSQQIE,2.75

row,Variant,protein stability index
1,RAQYVELARKNREELDKYWSQQIE,3.57
2,RAQYCELARKNREELDKYWSQQIE,3.33
3,RAQYTELARKNREELDKYWSQQIE,3.57
4,RASYDELARKNREELDKYWSQQIE,2.21
5,RAAYDELARKNREELDKYWSQQIE,2.68
6,RALYDELARKNREELDKYWSQQIE,2.55
7,RATYDELARKNREELDKYWSQQIE,2.89
8,RAFYDELARKNREELDKYWSQQIE,2.38
9,RANYDELARKNREELDKYWSQQIE,4.45
10,RAMYDELARKNREELDKYWSQQIE,2.52
11,RARYDELARKNREELDKYWSQQIE,3.27
12,RAYYDELARKNREELDKYWSQQIE,2.56
13,RAIYDELARKNREELDKYWSQQIE,2.44
14,RAGYDELARKNREELDKYWSQQIE,3.21
15,RADYDELARKNREELDKYWSQQIE,3.54
16,RAKYDELARKNREELDKYWSQQIE,3.19
17,RACYDELARKNREELDKYWSQQIE,2.51
18,RAWYDELARKNREELDKYWSQQIE,2.07
19,RAEYDELARKNREELDKYWSQQIE,3.19
20,RAPYDELARKNREELDKYWSQQIE,2.94
21,RAHYDELARKNREELDKYWSQQIE,2.54
22,RAVYDELARKNREELDKYWSQQIE,2.31
23,RAQYDELHRKNREELDKYWSQQIE,2.17
24,RAQYDELWRKNREELDKYWSQQIE,1.31

row,Variant,protein stability index
1,RAQYDELDRKNREELDKYWSQQIE,4.2
2,RAQYDELERKNREELDKYWSQQIE,4.57
3,RAQYDELLRKNREELDKYWSQQIE,2.34
4,RAQYDELCRKNREELDKYWSQQIE,2.75
5,RAQYDELMRKNREELDKYWSQQIE,2.66
6,RAQYDELGRKNREELDKYWSQQIE,3.72
7,RAQYDELIRKNREELDKYWSQQIE,3.17
8,RAQYDELQRKNREELDKYWSQQIE,3.75
9,RAQYDELPRKNREELDKYWSQQIE,4.42
10,RAQYDELKRKNREELDKYWSQQIE,3.85
11,RAQYDELFRKNREELDKYWSQQIE,3.41
12,RAQYDELRRKNREELDKYWSQQIE,3.51
13,RAQYDELVRKNREELDKYWSQQIE,2.6
14,RAQYDELSRKNREELDKYWSQQIE,3.5
15,RAQYDELNRKNREELDKYWSQQIE,3.54
16,RAQYDELTRKNREELDKYWSQQIE,2.33
17,RAQYDELAWKNREELDKYWSQQIE,2.62
18,RAQYDELAIKNREELDKYWSQQIE,3.34
19,RAQYDELADKNREELDKYWSQQIE,4.4
20,RAQYDELAPKNREELDKYWSQQIE,4.28
21,RAQYDELAQKNREELDKYWSQQIE,3.16
22,RAQYDELALKNREELDKYWSQQIE,3.27
23,RAQYDELASKNREELDKYWSQQIE,3.66
24,RAQYDELANKNREELDKYWSQQIE,3.46

row,Variant,protein stability index
1,RAQYDELAKKNREELDKYWSQQIE,3.52
2,RAQYDELAGKNREELDKYWSQQIE,4.53
3,RAQYDELAAKNREELDKYWSQQIE,3.92
4,RAQYDELAVKNREELDKYWSQQIE,2.86
5,RAQYDELAMKNREELDKYWSQQIE,3.17
6,RAQYDELACKNREELDKYWSQQIE,3.6
7,RAQYDELATKNREELDKYWSQQIE,3.53
8,RAQYDELAHKNREELDKYWSQQIE,3.4
9,RAQYDELAEKNREELDKYWSQQIE,3.69
10,RAQYDELAYKNREELDKYWSQQIE,3.64
11,RAQYDELAFKNREELDKYWSQQIE,3.88
12,RAQGDELARKNREELDKYWSQQIE,3.04
13,RAQWDELARKNREELDKYWSQQIE,2.48
14,RAQEDELARKNREELDKYWSQQIE,3.57
15,RAQRDELARKNREELDKYWSQQIE,4
16,RAQTDELARKNREELDKYWSQQIE,3.91
17,RAQCDELARKNREELDKYWSQQIE,3.44
18,RAQIDELARKNREELDKYWSQQIE,3.47
19,RAQPDELARKNREELDKYWSQQIE,3.67
20,RAQHDELARKNREELDKYWSQQIE,3.45
21,RAQFDELARKNREELDKYWSQQIE,3.52
22,RAQADELARKNREELDKYWSQQIE,3.84
23,RAQNDELARKNREELDKYWSQQIE,3.68
24,RAQKDELARKNREELDKYWSQQIE,3.46

row,Variant,protein stability index
1,RAQSDELARKNREELDKYWSQQIE,3.74
2,RAQLDELARKNREELDKYWSQQIE,2.25
3,RAQQDELARKNREELDKYWSQQIE,3.93
4,RAQVDELARKNREELDKYWSQQIE,4
5,RAQDDELARKNREELDKYWSQQIE,3.23
6,RAQMDELARKNREELDKYWSQQIE,3.18
7,RAQYDELARKNFEELDKYWSQQIE,4.13
8,RAQYDELARKNPEELDKYWSQQIE,4.08
9,RAQYDELARKNAEELDKYWSQQIE,4.25
10,RAQYDELARKNHEELDKYWSQQIE,3.64
11,RAQYDELARKNGEELDKYWSQQIE,3.32
12,RAQYDELARKNKEELDKYWSQQIE,4.37
13,RAQYDELARKNCEELDKYWSQQIE,3.98
14,RAQYDELARKNMEELDKYWSQQIE,3.72
15,RAQYDELARKNEEELDKYWSQQIE,4.27
16,RAQYDELARKNLEELDKYWSQQIE,4.56
17,RAQYDELARKNNEELDKYWSQQIE,3.94
18,RAQYDELARKNIEELDKYWSQQIE,4.34
19,RAQYDELARKNDEELDKYWSQQIE,4.17
20,RAQYDFLARKNREELDKYWSQQIE,3.15
21,RAQYDSLARKNREELDKYWSQQIE,3.24
22,RAQYDILARKNREELDKYWSQQIE,3.05
23,RAQYDVLARKNREELDKYWSQQIE,3.32
24,RAQYDKLARKNREELDKYWSQQIE,3.48

row,Variant,protein stability index
1,RAQYDPLARKNREELDKYWSQQIE,4.07
2,RAQYDTLARKNREELDKYWSQQIE,3.36
3,RAQYDMLARKNREELDKYWSQQIE,2.99
4,RAQYDHLARKNREELDKYWSQQIE,3.41
5,RAQYDALARKNREELDKYWSQQIE,3.3
6,RAQYDRLARKNREELDKYWSQQIE,3.17
7,RAQYDNLARKNREELDKYWSQQIE,3.66
8,RAQYDWLARKNREELDKYWSQQIE,2.42
9,RAQYDLLARKNREELDKYWSQQIE,2.85
10,RAQYDQLARKNREELDKYWSQQIE,3.51
11,RAQYDGLARKNREELDKYWSQQIE,3.02
12,RAQYDDLARKNREELDKYWSQQIE,3.27
13,RAQYDYLARKNREELDKYWSQQIE,3.25
14,RAQYDCLARKNREELDKYWSQQIE,2.3
15,RYQYDELARKNREELDKYWSQQIE,2.72
16,RWQYDELARKNREELDKYWSQQIE,3.13
17,RSQYDELARKNREELDKYWSQQIE,3.25
18,RRQYDELARKNREELDKYWSQQIE,3.24
19,RVQYDELARKNREELDKYWSQQIE,3.11
20,RTQYDELARKNREELDKYWSQQIE,2.52
